Target: T1, TnpB (ISDra2) (Deinococcus radiodurans (ISDra2), UniProt Q7DF80 1-408)
T1 sequence: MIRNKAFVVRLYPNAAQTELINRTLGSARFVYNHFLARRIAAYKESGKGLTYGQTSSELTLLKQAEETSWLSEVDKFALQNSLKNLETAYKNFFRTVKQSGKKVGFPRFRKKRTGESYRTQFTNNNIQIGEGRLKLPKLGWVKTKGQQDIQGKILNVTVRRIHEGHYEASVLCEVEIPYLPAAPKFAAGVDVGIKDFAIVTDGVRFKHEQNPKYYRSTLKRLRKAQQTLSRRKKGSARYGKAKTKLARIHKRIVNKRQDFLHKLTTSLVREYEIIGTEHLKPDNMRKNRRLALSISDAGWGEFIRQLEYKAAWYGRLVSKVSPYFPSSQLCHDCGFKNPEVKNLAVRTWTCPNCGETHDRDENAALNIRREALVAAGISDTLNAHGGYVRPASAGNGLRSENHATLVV
Test: co-purification (urea-PAGE, northern blot); bound RNA is 5'-processed, 100-160 nt; Ternary complex: TnpB–ωRNA + target DNA, room temperature 30 min; SEC in 20 mM Tris-HCl pH 8.0, 150 mM NaCl, 2 mM MgCl2, 10 uM ZnCl2, 1 mM DTT. Copurification:
Conditions: protein: recombinant; tags: N-terminal MBP, removed with HRV3C; pseudoknot, stems 1-3, triple helix

B1: ωRNA full length (as co-expressed) (structured_RNA)
RNA: GAUUCAAGAAUCCCGAAGUGAAGAAUCUUGCCGUCCGUACAUGGACUUGCCCGAACUGUGGGGAAACCCAUGACCGAGACGAGAACGCUGCGCUGAACAUUCGGCGUGAAGCGUUGGUGGCUGCGGGAAUCUCAGACACCUUAAACGCUCAUGGAGGCUAUGUCAGACCUGCUUCGGCGGGCAAUGGUCUGCGAAGUGAGAAUCACGCGACUUUAGUCGUGUGAGGUUCAAGAGUCCCUUGGCGCCC
B1: binds.

Source: PMC10097598, “Cryo-EM structure of the transposon-associated TnpB enzyme”
